In patent publication US20120245104A1, “NOVEL RETRO-INVERSO LEPTIN PEPTIDE ANTAGONISTS” (priority 2011, published 2012):
One block for each binder: values may come before it. Where no end group is shown, it is not given here. [ ]: non-standard residue; d: D form.

What was measured:
leptin receptor (ObR) [1] = molecular target: T1, leptin receptor (ObR) (UniProt P48357 22-1165, limits assumed); experiment: cell-based or functional assay
T1 sequence (looked up): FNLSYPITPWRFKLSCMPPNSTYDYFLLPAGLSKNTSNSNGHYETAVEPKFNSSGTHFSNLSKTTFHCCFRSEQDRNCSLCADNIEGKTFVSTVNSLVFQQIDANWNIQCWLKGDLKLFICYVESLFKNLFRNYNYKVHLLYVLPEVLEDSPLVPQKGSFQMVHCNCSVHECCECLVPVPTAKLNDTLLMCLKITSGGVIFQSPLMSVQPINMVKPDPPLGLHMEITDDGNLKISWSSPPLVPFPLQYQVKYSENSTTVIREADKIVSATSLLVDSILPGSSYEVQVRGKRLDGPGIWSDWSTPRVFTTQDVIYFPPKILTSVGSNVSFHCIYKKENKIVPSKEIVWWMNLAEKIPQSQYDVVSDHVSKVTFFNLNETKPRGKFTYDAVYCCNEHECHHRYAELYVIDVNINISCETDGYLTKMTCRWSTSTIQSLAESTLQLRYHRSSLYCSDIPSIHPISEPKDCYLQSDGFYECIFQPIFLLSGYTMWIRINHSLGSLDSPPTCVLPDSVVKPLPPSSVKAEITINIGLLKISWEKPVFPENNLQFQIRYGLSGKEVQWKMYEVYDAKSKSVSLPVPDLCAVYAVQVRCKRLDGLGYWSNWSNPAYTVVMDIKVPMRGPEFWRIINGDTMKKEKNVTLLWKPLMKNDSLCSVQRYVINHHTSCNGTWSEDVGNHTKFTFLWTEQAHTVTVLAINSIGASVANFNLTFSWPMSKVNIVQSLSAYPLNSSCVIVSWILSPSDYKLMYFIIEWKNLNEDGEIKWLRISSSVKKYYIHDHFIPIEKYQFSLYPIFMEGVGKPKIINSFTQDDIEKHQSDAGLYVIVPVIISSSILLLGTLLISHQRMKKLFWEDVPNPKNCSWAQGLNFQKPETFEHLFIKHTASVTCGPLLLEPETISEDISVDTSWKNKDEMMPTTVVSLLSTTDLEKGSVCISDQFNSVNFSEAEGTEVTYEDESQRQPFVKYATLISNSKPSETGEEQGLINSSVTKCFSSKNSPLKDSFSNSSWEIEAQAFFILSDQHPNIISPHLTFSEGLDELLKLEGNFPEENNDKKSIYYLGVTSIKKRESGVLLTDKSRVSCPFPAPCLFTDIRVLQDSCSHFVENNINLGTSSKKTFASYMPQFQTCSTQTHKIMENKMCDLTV

leptin receptor (ObR) [2] = molecular target: T1, leptin receptor (ObR); experiment: cell-based or functional assay; remark: listed apart in the source

B1: Retro-inverso LPA-2(89-72), D-L79 (peptide)
peptide: H-[dV][dH][dL][dL][dD][dR][dL][dN][dE][dL][dL][dN][dS][dI][dQ][dI][dV][dN]-NH2
SMILES: CC[C@@H](C)[C@@H](NC(=O)[C@@H](CO)NC(=O)[C@@H](CC(N)=O)NC(=O)[C@@H](CC(C)C)NC(=O)[C@@H](CC(C)C)NC(=O)[C@@H](CCC(=O)O)NC(=O)[C@@H](CC(N)=O)NC(=O)[C@@H](CC(C)C)NC(=O)[C@@H](CCCNC(=N)N)NC(=O)[C@@H](CC(=O)O)NC(=O)[C@@H](CC(C)C)NC(=O)[C@@H](CC(C)C)NC(=O)[C@@H](Cc1c[nH]cn1)NC(=O)[C@H](N)C(C)C)C(=O)N[C@H](CCC(N)=O)C(=O)N[C@@H](C(=O)N[C@@H](C(=O)N[C@H](CC(N)=O)C(N)=O)C(C)C)[C@H](C)CC
IC50, inhibition of leptin-induced growth of MCF-7 cells (leptin receptor (ObR) [2]): 18.7 nM

Binder: IQKVQDDTKTLIKTIVTRINDISHTQSVSSKQ-NH2 [Full-length LPA-1 (3-34)]
IC50 (half maximal inhibitory concentration), inhibition of leptin-induced cell growth (leptin receptor (ObR) [1]): 39.1 nM
IC50, inhibition of leptin-induced growth of MCF-7 cells (leptin receptor (ObR) [2]): 39.1 nM

B2: Retro-inverso LPA-2(89-72), D-V79 (peptide)
peptide: H-[dV][dH][dL][dL][dD][dR][dL][dN][dE][dL][dV][dN][dS][dI][dQ][dI][dV][dN]-NH2
SMILES: CC[C@@H](C)[C@@H](NC(=O)[C@@H](CO)NC(=O)[C@@H](CC(N)=O)NC(=O)[C@H](NC(=O)[C@@H](CC(C)C)NC(=O)[C@@H](CCC(=O)O)NC(=O)[C@@H](CC(N)=O)NC(=O)[C@@H](CC(C)C)NC(=O)[C@@H](CCCNC(=N)N)NC(=O)[C@@H](CC(=O)O)NC(=O)[C@@H](CC(C)C)NC(=O)[C@@H](CC(C)C)NC(=O)[C@@H](Cc1c[nH]cn1)NC(=O)[C@H](N)C(C)C)C(C)C)C(=O)N[C@H](CCC(N)=O)C(=O)N[C@@H](C(=O)N[C@@H](C(=O)N[C@H](CC(N)=O)C(N)=O)C(C)C)[C@H](C)CC
IC50, inhibition of leptin-induced growth of MCF-7 cells (leptin receptor (ObR) [2]): 13.6 nM

Binder: VQDDTKTLIKTIVTRINDI-NH2 [Truncated LPA-1 (6-24), T10 (original amino acid)]
IC50 (half maximal inhibitory concentration), inhibition of leptin-induced cell growth (leptin receptor (ObR) [1]): 25.7 nM
IC50, inhibition of leptin-induced growth of MCF-7 cells (leptin receptor (ObR) [2]): 25.7 nM

Binder: SRNVIQISNDLENLRDLLHVLAFSKS-NH2 [Full-length LPA-2 (70-95)]
IC50 (half maximal inhibitory concentration), inhibition of leptin-induced cell growth (leptin receptor (ObR) [1]): 33 nM
IC50, inhibition of leptin-induced growth of MCF-7 cells (leptin receptor (ObR) [2]): 33 nM

B3: Retro-inverso LPA-1(24-6), D-L10 (peptide)
peptide: H-[dI][dD][dN][dI][dR][dT][dV][dI][dT][dK][dI][dL][dT][dK][dL][dD][dD][dQ][dV]-NH2
SMILES: CC[C@@H](C)[C@@H](N)C(=O)N[C@H](CC(=O)O)C(=O)N[C@H](CC(N)=O)C(=O)N[C@@H](C(=O)N[C@H](CCCNC(=N)N)C(=O)N[C@@H](C(=O)N[C@@H](C(=O)N[C@@H](C(=O)N[C@@H](C(=O)N[C@H](CCCCN)C(=O)N[C@@H](C(=O)N[C@H](CC(C)C)C(=O)N[C@@H](C(=O)N[C@H](CCCCN)C(=O)N[C@H](CC(C)C)C(=O)N[C@H](CC(=O)O)C(=O)N[C@H](CC(=O)O)C(=O)N[C@H](CCC(N)=O)C(=O)N[C@@H](C(N)=O)C(C)C)[C@H](C)O)[C@H](C)CC)[C@H](C)O)[C@H](C)CC)C(C)C)[C@H](C)O)[C@H](C)CC
IC50, inhibition of leptin-induced growth of MCF-7 cells (leptin receptor (ObR) [2]): 11.8 nM

B4: Retro-inverso LPA-1(24-6), D-V10 (peptide)
peptide: H-[dI][dD][dN][dI][dR][dT][dV][dI][dT][dK][dI][dL][dT][dK][dV][dD][dD][dQ][dV]-NH2
SMILES: CC[C@@H](C)[C@@H](N)C(=O)N[C@H](CC(=O)O)C(=O)N[C@H](CC(N)=O)C(=O)N[C@@H](C(=O)N[C@H](CCCNC(=N)N)C(=O)N[C@@H](C(=O)N[C@@H](C(=O)N[C@@H](C(=O)N[C@@H](C(=O)N[C@H](CCCCN)C(=O)N[C@@H](C(=O)N[C@H](CC(C)C)C(=O)N[C@@H](C(=O)N[C@H](CCCCN)C(=O)N[C@@H](C(=O)N[C@H](CC(=O)O)C(=O)N[C@H](CC(=O)O)C(=O)N[C@H](CCC(N)=O)C(=O)N[C@@H](C(N)=O)C(C)C)C(C)C)[C@H](C)O)[C@H](C)CC)[C@H](C)O)[C@H](C)CC)C(C)C)[C@H](C)O)[C@H](C)CC
IC50, inhibition of leptin-induced growth of MCF-7 cells (leptin receptor (ObR) [2]): 17.4 nM

More lines, now with the values ahead:

IC50 (half maximal inhibitory concentration), inhibition of leptin-induced cell growth (leptin receptor (ObR) [1]): 54 nM
Binder: NVIQISNALENLRDLLHV-NH2 [Truncated LPA-2 (72-89), D79 Ala substitution]

IC50 (half maximal inhibitory concentration), inhibition of leptin-induced cell growth (leptin receptor (ObR) [1]): 32 nM
IC50, inhibition of leptin-induced growth of MCF-7 cells (leptin receptor (ObR) [2]): 32 nM
Binder: NVIQISNDLENLRDLLHV-NH2 [Truncated LPA-2 (72-89), D79 (original amino acid)]

IC50 (half maximal inhibitory concentration), inhibition of leptin-induced cell growth (leptin receptor (ObR) [1]): 20.7 nM
Binder: VQDDVKTLIKTIVTRINDI-NH2 [Truncated LPA-1 (6-24), T10 Val substitution]

IC50 (half maximal inhibitory concentration), inhibition of leptin-induced cell growth (leptin receptor (ObR) [1]): 21 nM
Binder: VQDDIKTLIKTIVTRINDI-NH2 [Truncated LPA-1 (6-24), T10 Ile substitution]

IC50 (half maximal inhibitory concentration), inhibition of leptin-induced cell growth (leptin receptor (ObR) [1]): 15.6 nM
Binder: NVIQISNVLENLRDLLHV-NH2 [Truncated LPA-2 (72-89), D79 Val substitution]

IC50 (half maximal inhibitory concentration), inhibition of leptin-induced cell growth (leptin receptor (ObR) [1]): 16 nM
Binder: NVIQISNLLENLRDLLHV-NH2 [Truncated LPA-2 (72-89), D79 Leu substitution]

IC50 (half maximal inhibitory concentration), inhibition of leptin-induced cell growth (leptin receptor (ObR) [1]): 16 nM
Binder: NVIQISNILENLRDLLHV-NH2 [Truncated LPA-2 (72-89), D79 Ile substitution]

IC50 (half maximal inhibitory concentration), inhibition of leptin-induced cell growth (leptin receptor (ObR) [1]): 88 nM
Binder: VQDDAKTLIKTIVTRINDI-NH2 [Truncated LPA-1 (6-24), T10 Ala substitution]
